Source: article doi:10.1101/2025.02.18.638932, “CHIP protects lysosomes from CLN4 mutant-induced membrane damages” (bioRxiv, 2025)

Target: the molecule itself
Experiment: immunoblotting of SDS-resistant high molecular weight species; purified DNAJC5 protein incubated with buffer or calf liver cytosol with or without ATP at 37 °C for 30 min, then immunoblotting

B1: recombinant human DNAJC5 L116Δ (natural protein, UniProt Q9H3Z4 1-198, looked up)
chain: MADQRQRSLSTSGESLYHVLGLDKNATSDDIKKSYRKLALKYHPDKNPDNPEAADKFKEINNAHAILTDATKRNIYDKYGSLGLYVAEQFGEENVNTYFVLSSWWAKALFVFCGLTCCYCCCCLCCCFNCCCGKCKPKAPEGEETEFYVSPEDLEAQLQSDEREATDTPIVIQPASATETTQLTADSHPSYHTDGFN
notes: DNAJC5, human, CLN4 disease mutant L116Δ (p.L116del, c.346-348del); A TEV cleavage site lies between the GST tag and the protein; also called hDNAJC5 L116Δ; purified L116Δ mutant; source: E. coli BL21(DE3), purified (Glutathione Sepharose, eluted by TEV protease)
B1: binds.
